Experimental data: patent publication US20250250355A1 (BIOSION, published 2025)
Where two headings read alike, the source gives them in different places.

How the values were obtained:
[1] = target: T1, human SIRPα-V8-his protein (human, UniProt P78324 31-370, limits assumed); experiment: indirect ELISA on coated human SIRPα-V8-his, OD(450-630)
[2] = target: human SIRPα-isoform 2-his protein (human); experiment: indirect ELISA on coated human SIRPα-isoform 2-his, OD(450-630)
[3] = target: human SIRPα-isoform 2-his protein (human); experiment: indirect ELISA on coated human SIRPα-isoform 2-his, OD(450-630); plateau at OD about 1.0
[4] = target: T2, full length human SIRPγ endogenously expressed on Jurkat cells (human, UniProt Q9P1W8 29-387); experiment: cell based binding FACS on Jurkat cells (endogenous human SIRPγ), MFI; plateau at MFI about 330
T2 construct: whole, on cells; also called human SIRPγ expressed on Jurkat cells

[5] = target: T1, human SIRPα-V8-his protein; experiment: indirect ELISA on coated human SIRPα-V8-his, OD(450-630); curve not visible in the scan
[6] = target: human SIRPα-isoform 2-his protein (human); experiment: indirect ELISA on coated human SIRPα-isoform 2-his, OD(450-630); remark: listed apart in the source
[7] = target: T3, full length human SIRPβ on cell membranes (HEK293-SIRPβ cells; 293F cells expressing human SIRPβ) (human, UniProt O00241 30-398); experiment: cell based binding FACS on 293F cells expressing human SIRPβ, MFI
T3 construct: whole, on cells; also called cell surface human SIRPβ

[8] = target: T4, full length human SIRPα on cell membranes (HEK293-SIRPα cells; 293F-SIRPα cells) (human, UniProt P78324 31-504); experiment: cell based blocking FACS on 293F-SIRPα cells; blocked ligand: human CD47 protein (CD47-Fc), MFI
T4 construct: whole, on cells; also called cell surface human SIRPα; cell surface SIRPα

[9] = target: T3, full length human SIRPβ on cell …; experiment: cell based binding FACS on 293F cells expressing human SIRPβ, MFI; remark: listed apart in the source
[10] = target: T2, full length human SIRPγ endogenously …; experiment: cell based binding FACS on Jurkat cells (endogenous human SIRPγ), MFI; plateau at MFI about 325
[11] = target: T5, recombinant human SIRPα-Fc protein (human, biotin-labeled (sites not given)); experiment: capture ELISA, antibody captured on anti-mouse IgG F(ab')2, biotin-labeled human SIRPα-Fc in solution, OD(450-630)
T5 construct: also called biotin-labeled human SIRPα-Fc protein

[12] = target: T3, full length human SIRPβ on cell …; experiment: cell based binding FACS on HEK293-SIRPβ cells, MFI; curve not visible in the scan
[13] = target: T2, full length human SIRPγ endogenously …; experiment: cell based binding FACS on Jurkat cells (endogenous human SIRPγ), MFI; curve not visible in the scan
[14] = target: T4, full length human SIRPα on cell …; experiment: cell based binding FACS on 293F cells expressing human SIRPα, MFI
[15] = target: T4, full length human SIRPα on cell …; experiment: as above; remark: listed apart in the source
[16] = target: T4, full length human SIRPα on cell …; experiment: cell based binding FACS on HEK293-SIRPα cells, MFI; curve not visible in the scan
[17] = target: T6, human SIRPα protein (soluble, used on 293F-CD47 cells) (human, UniProt P78324 31-370, limits assumed); experiment: cell based blocking FACS on 293F-CD47 cells; soluble human SIRPα protein blocked from binding cell surface human CD47, MFI
[18] = target: T4, full length human SIRPα on cell …; experiment: cell based blocking FACS on 293F-SIRPα cells; blocked ligand: human CD47 protein (CD47-Fc), MFI; remark: listed apart in the source
mouse SIRPα-his = target: T7, mouse SIRPα-his (mouse, UniProt P97797 35-363, limits assumed); experiment: indirect ELISA on coated mouse SIRPα-his, OD(450-630)
T7 chain: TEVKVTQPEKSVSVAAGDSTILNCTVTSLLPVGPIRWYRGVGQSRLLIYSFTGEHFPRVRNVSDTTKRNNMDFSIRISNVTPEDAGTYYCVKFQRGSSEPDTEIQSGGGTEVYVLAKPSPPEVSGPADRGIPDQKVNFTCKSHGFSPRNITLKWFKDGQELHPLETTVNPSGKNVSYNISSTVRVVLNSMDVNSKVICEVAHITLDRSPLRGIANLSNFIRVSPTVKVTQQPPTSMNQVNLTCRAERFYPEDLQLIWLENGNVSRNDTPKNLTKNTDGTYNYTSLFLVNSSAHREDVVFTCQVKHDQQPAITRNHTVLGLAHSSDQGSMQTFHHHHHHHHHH

[19] = target: T6, human SIRPα protein (soluble, used on …); experiment: cell based blocking FACS on 293F-CD47 cells; soluble human SIRPα protein blocked from binding cell surface human CD47, MFI; remark: listed apart in the source
human SIRPα-his protein = human SIRPα-his protein (human, UniProt P78324 31-370); experiment: competitive ELISA on coated human SIRPα-his; blocked ligand: biotin-labeled human CD47-his, OD(450-630)

B1: KWAR23 (antibody, human IgG4 S228P, kappa, V domains shown)
VH: EVQLQQSGAELVKPGASVKLSCTASGFNIKDYYIHWVQQRTEQGLEWIGRIDPEDGETKYAPKFQDKATITADTSSNTAYLHLSSLTSEDTAVYYCARWGAYWGQGTLVTVSA
VL: QIVLTQSPAIMSASPGEKVTLTCSASSSVSSSYLYWYQQKPGSSPKLWIYSTSNLASGVPARFSGSGSGTSYSLTISSMEAEDAASYFCHQWSSYPRTFGAGTKLELKR
notes: also called BM
In the case of B1, the EC50 [1] is reported as 0.255 nM, the EC50 [2] is reported as 0.307 nM and the EC50 [3] is reported as 0.436 nM. The EC50 [4] was 0.00724 nM, the EC50 [5] was 0.339 nM and the EC50 [6] was 0.409 nM. It also gave an EC50 [7] of 0.164 nM, an IC50 [8] of 0.731 nM and an EC50 [9] of 0.156 nM. The EC50 [10] was 0.00761 nM, the EC50 [11] was 0.0774 nM and the EC50 [12] was 0.272 nM. It also gave an EC50 [13] of 0.0102 nM, an EC50 [14] of 0.307 nM and an EC50 [15] of 0.309 nM. It also gave an EC50 [16] of 0.383 nM, an IC50 [17] of 0.241 nM and an IC50 [18] of 0.753 nM. For the same binder, the binding result (mouse SIRPα-his) was “no binding (tested: ~67 nM)”, the IC50 [19] was 0.25 nM and the IC50 (human SIRPα-his protein) was 2 nM.
